Test system: peptide library, one residue held at a place counted from the Y acceptor
Assay: relative phosphorylation of the sub-library (ratio to the mean residue at this position); higher = residue favoured
Outline: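 In 384-well plates, purified recombinant kinases were incubated for 90 min with 50 μM ATP containing γ-32P-ATP and biotinylated Tyr-centred peptide libraries, each mixture fixing one residue at a single position between −5 and +5. After capture on streptavidin membranes and rinsing, peptides were quantified by phosphorimaging with ImageQuant. Per-position intensities were scaled to the sum of the 18 (Ser/Thr-free library: 16) randomized residues, then multiplied by that number.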

Sequence of PTK2, construct: Full length, human (Q05397 whole entry, looked up): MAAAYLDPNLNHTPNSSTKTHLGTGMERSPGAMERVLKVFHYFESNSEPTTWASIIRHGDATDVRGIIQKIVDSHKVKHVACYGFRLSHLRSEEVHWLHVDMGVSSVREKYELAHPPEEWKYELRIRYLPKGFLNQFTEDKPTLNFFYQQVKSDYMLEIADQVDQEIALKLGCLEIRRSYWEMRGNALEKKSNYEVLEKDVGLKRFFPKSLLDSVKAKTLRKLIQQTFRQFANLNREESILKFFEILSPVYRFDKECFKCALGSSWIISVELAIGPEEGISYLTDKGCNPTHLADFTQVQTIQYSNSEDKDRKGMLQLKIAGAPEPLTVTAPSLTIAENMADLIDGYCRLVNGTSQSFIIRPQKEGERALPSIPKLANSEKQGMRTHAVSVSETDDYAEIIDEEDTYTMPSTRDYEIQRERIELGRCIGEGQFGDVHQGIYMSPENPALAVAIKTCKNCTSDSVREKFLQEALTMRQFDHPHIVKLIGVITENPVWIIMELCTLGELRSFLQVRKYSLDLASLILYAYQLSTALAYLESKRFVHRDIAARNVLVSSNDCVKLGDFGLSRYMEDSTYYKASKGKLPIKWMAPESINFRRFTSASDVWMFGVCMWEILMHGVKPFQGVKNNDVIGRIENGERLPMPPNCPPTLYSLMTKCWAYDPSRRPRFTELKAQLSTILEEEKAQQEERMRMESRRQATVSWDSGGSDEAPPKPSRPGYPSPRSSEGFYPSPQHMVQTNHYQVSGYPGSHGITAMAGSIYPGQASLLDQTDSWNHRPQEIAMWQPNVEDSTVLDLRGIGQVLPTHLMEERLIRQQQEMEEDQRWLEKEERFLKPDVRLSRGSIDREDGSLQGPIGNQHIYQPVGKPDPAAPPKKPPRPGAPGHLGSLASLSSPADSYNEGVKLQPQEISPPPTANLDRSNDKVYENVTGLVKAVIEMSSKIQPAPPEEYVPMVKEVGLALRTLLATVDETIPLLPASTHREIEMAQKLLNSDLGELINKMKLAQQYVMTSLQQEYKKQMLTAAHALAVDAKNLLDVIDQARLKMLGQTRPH
Sequence of NTRK1, construct: aa440-end, human (P04629 440-796, looked up): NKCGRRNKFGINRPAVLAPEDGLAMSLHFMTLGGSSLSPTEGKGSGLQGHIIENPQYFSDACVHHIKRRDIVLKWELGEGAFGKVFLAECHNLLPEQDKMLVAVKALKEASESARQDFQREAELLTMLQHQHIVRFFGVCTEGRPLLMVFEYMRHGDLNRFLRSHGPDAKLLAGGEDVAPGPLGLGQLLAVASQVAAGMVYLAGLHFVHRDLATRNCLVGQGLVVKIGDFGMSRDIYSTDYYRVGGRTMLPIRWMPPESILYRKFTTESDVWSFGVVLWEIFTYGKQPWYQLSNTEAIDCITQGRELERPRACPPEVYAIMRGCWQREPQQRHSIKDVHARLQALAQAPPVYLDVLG

NTRK1, construct: aa440-end, human (from UniProt P04629)
relative phosphorylation
Settings | at +1 | at +2 | at +3 | at +4 | at +5 | at -1 | at -2 | at -3 | at -4 | at -5
A fixed | 1.34 | 0.684 | 0.751 | 0.76 | 0.909 | 0.676 | 0.944 | 0.792 | 1.02 | 0.882
D fixed | 0.529 | 0.79 | 0.541 | 1.4 | 1.19 | 2.24 | 1.22 | 1.3 | 1.08 | 1.17
E fixed | 0.936 | 1.28 | 0.45 | 1.52 | 1.12 | 1.07 | 1.34 | 1.5 | 1.32 | 1.03
F fixed | 1.66 | 1.26 | 1.82 | 0.952 | 1.24 | 0.966 | 0.812 | 1.12 | 1.33 | 1.04
G fixed | 0.711 | 0.438 | 0.891 | 1.25 | 1.07 | 0.578 | 1.05 | 0.955 | 1.05 | 1.08
H fixed | 0.979 | 0.731 | 0.706 | 1.09 | 0.991 | 1.42 | 0.947 | 1.15 | 0.963 | 1.04
I fixed | 1.66 | 1.28 | 2.02 | 0.897 | 0.748 | 1.32 | 0.854 | 0.777 | 0.837 | 0.946
K fixed | 0.236 | 0.577 | 0.271 | 0.658 | 0.783 | 0.273 | 0.811 | 0.691 | 0.722 | 0.782
L fixed | 1.2 | 1.2 | 1.92 | 0.734 | 0.983 | 1.17 | 1.01 | 0.794 | 0.939 | 0.93
M fixed | 1.79 | 1.4 | 1.64 | 1.04 | 1.03 | 0.884 | 1.02 | 0.979 | 0.884 | 0.997
N fixed | 0.441 | 0.952 | 0.475 | 0.899 | 1 | 2.12 | 1.25 | 1.39 | 0.93 | 1.23
P fixed | 0.267 | 0.688 | 0.885 | 1.15 | 1.42 | 0.942 | 0.936 | 0.875 | 1.12 | 0.996
Q fixed | 0.984 | 0.922 | 0.544 | 1.01 | 0.944 | 0.869 | 1.18 | 0.872 | 1.1 | 1.04
R fixed | 0.273 | 0.983 | 0.419 | 0.803 | 0.883 | 0.349 | 0.871 | 0.854 | 0.79 | 1.02
S fixed | 0.736 | 0.743 | 0.725 | 0.829 | 0.788 | 0.686 | 1.11 | 1.01 | 0.803 | 0.89
T fixed | 0.916 | 0.955 | 0.868 | 0.85 | 0.715 | 0.873 | 0.897 | 0.987 | 0.671 | 0.939
V fixed | 1.84 | 1.06 | 1.38 | 0.784 | 0.743 | 0.951 | 0.756 | 0.696 | 0.791 | 0.785
W fixed | 1.5 | 2.06 | 1.71 | 1.37 | 1.43 | 0.614 | 0.99 | 1.25 | 1.66 | 1.2
pThr fixed | 1.54 | 0.962 | 0.449 | 1.08 | 0.958 | 0.981 | 0.838 | 0.952 | 0.96 | 1.03
pTyr fixed | 2.47 | 2.33 | 0.884 | 1.74 | 1.01 | 4.13 | 1.32 | 1.48 | 1.44 | 1.23

PINK1, construct: Full length, Tribolium castaneum (from UniProt D6WMX4)
relative phosphorylation
Settings | at +1 | at +2 | at +3 | at +4 | at +5 | at -1 | at -2 | at -3 | at -4 | at -5
A fixed | 0.901 | 0.835 | 0.881 | 0.879 | 0.893 | 0.907 | 0.869 | 0.893 | 0.948 | 0.916
D fixed | 0.823 | 0.834 | 0.831 | 0.914 | 0.84 | 0.931 | 0.892 | 0.906 | 1.05 | 1.09
E fixed | 0.789 | 0.792 | 0.875 | 0.938 | 0.813 | 1.22 | 0.916 | 0.938 | 1.42 | 1.04
F fixed | 1.43 | 1.12 | 1.08 | 1.07 | 1.05 | 1.17 | 1.11 | 0.986 | 1.1 | 0.984
G fixed | 0.902 | 0.767 | 0.78 | 0.909 | 0.88 | 1.15 | 0.931 | 0.838 | 0.884 | 0.936
H fixed | 1.23 | 1.15 | 1.07 | 1.1 | 1.07 | 0.97 | 1.05 | 1.08 | 1.01 | 1.09
I fixed | 0.847 | 0.804 | 0.852 | 0.84 | 0.832 | 1 | 0.922 | 0.781 | 0.868 | 0.888
K fixed | 0.937 | 1.59 | 1.31 | 1.32 | 1.31 | 1 | 1.13 | 1.2 | 1.03 | 1.18
L fixed | 0.737 | 0.831 | 0.881 | 0.882 | 0.876 | 0.814 | 0.889 | 0.862 | 0.793 | 0.82
M fixed | 0.762 | 1.01 | 0.959 | 0.869 | 0.891 | 0.819 | 0.824 | 0.849 | 0.798 | 0.85
N fixed | 0.936 | 1 | 0.91 | 0.954 | 1.02 | 0.948 | 1.21 | 0.981 | 0.871 | 0.893
P fixed | 0.778 | 0.786 | 0.909 | 0.885 | 0.876 | 0.911 | 0.843 | 0.851 | 0.828 | 0.911
Q fixed | 0.862 | 0.989 | 0.973 | 0.99 | 1.02 | 0.998 | 0.996 | 1.09 | 0.934 | 0.887
R fixed | 1.16 | 1.71 | 1.61 | 1.57 | 1.68 | 1.3 | 1.36 | 1.82 | 1.35 | 1.35
V fixed | 0.784 | 0.805 | 0.857 | 0.797 | 0.816 | 0.853 | 0.911 | 0.819 | 0.817 | 0.874
W fixed | 2.12 | 0.972 | 1.23 | 1.09 | 1.15 | 1 | 1.14 | 1.11 | 1.31 | 1.29
pThr fixed | 0.939 | 0.843 | 0.735 | 0.99 | 0.826 | 1.29 | 0.841 | 1.06 | 1.04 | 1.06
pTyr fixed | 1.3 | 0.83 | 0.872 | 1.26 | 0.978 | 1.25 | 0.995 | 1.2 | 1.16 | 1.11

PTK2, construct: Full length, human (from UniProt Q05397)
relative phosphorylation
Settings | at +1 | at +2 | at +3 | at +4 | at +5 | at -1 | at -2 | at -3 | at -4 | at -5
A fixed | 1.98 | 0.732 | 0.861 | 0.842 | 1.02 | 0.632 | 1.05 | 0.673 | 0.936 | 0.931
D fixed | 1.73 | 1.7 | 0.677 | 0.971 | 1.21 | 5.68 | 1.57 | 1.78 | 1.51 | 1.39
E fixed | 1.85 | 2.34 | 0.705 | 1.19 | 1.23 | 1.38 | 1.77 | 2.18 | 1.61 | 1.37
F fixed | 0.794 | 1.18 | 1.29 | 0.961 | 0.944 | 0.654 | 0.858 | 1.06 | 1.21 | 1.02
G fixed | 1.09 | 0.625 | 0.731 | 1.14 | 1.21 | 0.575 | 1.03 | 0.851 | 1.08 | 1.1
H fixed | 0.724 | 0.825 | 0.752 | 1.17 | 0.86 | 0.57 | 0.801 | 1.42 | 0.891 | 0.935
I fixed | 0.99 | 1.13 | 2.19 | 0.964 | 0.811 | 1.17 | 0.839 | 0.757 | 0.968 | 1.11
K fixed | 0.526 | 0.574 | 0.561 | 0.743 | 0.656 | 0.508 | 0.688 | 0.702 | 0.708 | 0.806
L fixed | 0.66 | 0.909 | 1.58 | 0.792 | 0.933 | 0.784 | 0.814 | 0.801 | 1.08 | 1.04
M fixed | 0.833 | 0.912 | 1.03 | 1.04 | 0.9 | 0.637 | 0.76 | 1.16 | 0.859 | 1.04
N fixed | 0.699 | 1.04 | 0.613 | 0.759 | 0.852 | 0.882 | 1.42 | 1.11 | 0.917 | 0.976
P fixed | 0.506 | 0.653 | 1.5 | 1.07 | 1.63 | 0.553 | 1.25 | 0.665 | 0.895 | 0.934
Q fixed | 0.914 | 0.677 | 0.631 | 0.824 | 0.841 | 0.578 | 0.946 | 0.85 | 1 | 0.909
R fixed | 0.538 | 0.612 | 0.59 | 0.758 | 0.678 | 0.512 | 0.689 | 0.78 | 0.725 | 0.868
S fixed | 1.1 | 0.804 | 0.713 | 0.849 | 1.07 | 0.577 | 1.02 | 0.742 | 0.785 | 0.802
T fixed | 0.879 | 0.815 | 0.795 | 0.815 | 1.21 | 0.76 | 0.765 | 0.702 | 0.724 | 0.808
V fixed | 1.27 | 0.965 | 1.61 | 0.933 | 0.868 | 0.964 | 0.882 | 0.719 | 0.831 | 0.884
W fixed | 0.911 | 1.52 | 1.18 | 2.19 | 1.07 | 0.579 | 0.833 | 1.05 | 1.27 | 1.07
pThr fixed | 5.07 | 4.12 | 0.915 | 1.1 | 1.89 | 7.51 | 2.09 | 1.88 | 1.74 | 1.39
pTyr fixed | 3.81 | 12.2 | 1.18 | 1.35 | 1.58 | 1.35 | 1.33 | 1.76 | 2.01 | 1.55

Source: the supplement of paper PMC11136658
